For test [1], the target named is DhmeA^ΔGG (Haloferax mediterranei). In words: crystal structure; DhmeA^ΔGG 12-14 mg/mL; sitting drop at 10°C; 0.1 M MES/imidazole pH 6.5, 0.1 M amino acids, 10% PEG 4,000, 20% glycerol; 3.3 Å.
Test [2] addresses full-length wild-type DhmeA from pnEA/3CH-dhmeA, His6 tag removed with 3C protease (Haloferax mediterranei). In words: dynamic light scattering; wild-type DhmeA 1 mg/mL in 1 M NaCl, 10 mM Tris pH 8.0, 0.5 mM TCEP; Delsa Max Core.
For test [3] the target is unchanged. In words: cryo-EM structure; full-length DhmeA 0.035 mg/mL on Quantifoil grids; data collected at 0° and 44° stage tilt on a Titan Krios; 7-8 Å.

In turn, DhmeA^ΔGG (enzyme) gave a stoichiometry N in test [1] of 20.

Consider “full-length wild-type DhmeA from pnEA/3CH-dhmeA, His6 tag removed with 3C protease (enzyme)”, for which the stoichiometry N in test [2] amounted to 4; in test [3] it was 6.
